# Source: US20200199241A1 (Chugai, published 2020)
# Where a chain is given by its changes, count along the chain named. Numbers in names are those of the source. Like-named read-outs stand apart in the source and are kept apart here.
# T1: mouse FcγRIV (mouse, UniProt A0A0B4J1G0 21-203)
# T1 construct: bought; also called mFcgRIV; mFcgR IV; the vendor's purification tag not given
# T1 sequence: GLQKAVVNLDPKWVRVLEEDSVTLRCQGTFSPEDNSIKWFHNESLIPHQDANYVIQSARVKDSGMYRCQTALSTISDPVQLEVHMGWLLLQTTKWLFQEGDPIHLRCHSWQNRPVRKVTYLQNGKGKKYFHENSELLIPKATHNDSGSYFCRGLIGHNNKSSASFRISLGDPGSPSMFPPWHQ
# T2: mouse FcγRIIb (mouse, UniProt P08101 30-207, limits assumed)
# T2 construct: bought; also called mFcgRIIb; mFcgR IIb
# T2 sequence (looked up): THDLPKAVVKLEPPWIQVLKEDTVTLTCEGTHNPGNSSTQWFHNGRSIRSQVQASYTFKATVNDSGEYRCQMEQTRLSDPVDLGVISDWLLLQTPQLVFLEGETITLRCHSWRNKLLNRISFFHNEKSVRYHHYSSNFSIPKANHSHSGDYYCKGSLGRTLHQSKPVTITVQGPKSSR
# T3: mouse FcγRI (mouse, UniProt P26151 25-297)
# T3 construct: bought; also called mFcgRI; mFcgR 1
# T3 sequence (looked up): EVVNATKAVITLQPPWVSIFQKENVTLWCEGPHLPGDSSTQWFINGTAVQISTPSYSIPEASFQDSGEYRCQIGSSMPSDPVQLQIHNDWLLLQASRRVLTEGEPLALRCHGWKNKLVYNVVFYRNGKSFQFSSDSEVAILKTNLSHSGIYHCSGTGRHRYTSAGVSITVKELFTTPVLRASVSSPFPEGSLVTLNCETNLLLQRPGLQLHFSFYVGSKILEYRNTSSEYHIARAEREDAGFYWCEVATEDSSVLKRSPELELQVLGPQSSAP
# T4: mouse FcγRIII (mouse, UniProt P08508 31-215)
# T4 construct: bought; also called mFcgRIII; mFcgR III
# T4 sequence (looked up): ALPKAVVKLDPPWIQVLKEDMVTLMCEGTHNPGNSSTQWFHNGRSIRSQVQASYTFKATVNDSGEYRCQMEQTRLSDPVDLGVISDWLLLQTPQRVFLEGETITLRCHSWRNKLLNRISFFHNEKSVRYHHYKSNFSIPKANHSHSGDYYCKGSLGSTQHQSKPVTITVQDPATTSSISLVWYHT
# T5: human FcγRIIb (human, UniProt P31994 43-217, limits assumed)
# T5 construct: also called hFcgRIIb; FcγIIB
# T5 sequence: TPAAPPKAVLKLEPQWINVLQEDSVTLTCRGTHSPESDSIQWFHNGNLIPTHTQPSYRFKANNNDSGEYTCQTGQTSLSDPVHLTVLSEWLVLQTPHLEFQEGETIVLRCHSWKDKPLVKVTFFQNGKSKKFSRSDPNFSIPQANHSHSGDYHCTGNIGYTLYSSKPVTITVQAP
# T6: human FcγRIIa(R) (human, UniProt P12318 36-217)
# T6 construct: also called hFcgRIIa(R); FcγRIIa type R
# T6 chain: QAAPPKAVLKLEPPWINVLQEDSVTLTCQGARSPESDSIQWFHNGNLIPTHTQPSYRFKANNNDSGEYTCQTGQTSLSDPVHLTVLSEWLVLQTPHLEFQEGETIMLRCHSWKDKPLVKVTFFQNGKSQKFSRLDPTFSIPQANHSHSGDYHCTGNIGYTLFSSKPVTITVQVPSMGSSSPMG
# T7: human FcγRIIa(H) (human, UniProt P12318 36-217)
# T7 construct: also called hFcgRIIa(H); FcγRIIa type H
# T7 sequence: T6 chain with R133H
# T8: human FcγRIIb (human, UniProt P31994 43-217, limits assumed)
# T8 construct: also called FcγIIB
# T8 sequence: T5 sequence
# B1: antibody with VH3-IgG1-F424 heavy chain and L(WT)-CK light chain (antibody)
# heavy: QVQLQESGPGLVKPSETLSLTCAVSGHSISHDHAWSWVRQPPGEGLEWIGFISYSGITNYNPSLQGRVTISRDNSKNTLYLQMNSLRAEDTAVYYCARSLARTTAMDYWGEGTLVTVSSASTKGPSVFPLAPSSKSTSGGTAALGCLVKDYFPEPVTVSWNSGALTSGVHTFPAVLQSSGLYSLSSVVTVPSSSLGTQTYICNVNHKPSNTKVDKKVEPKSCDKTHTCPPCPAPELLGGPKVFLFPPKPKDTLMISRTAEVTCVVVDVSHEDPEVKFNWYVDGVEVHNAKTKPREEQYNSTYRVVSVLTPLHQDWLNGKEYKCKVSNKALPAPIEKTISKAKGQPREPQVYTLPPSRDELTKNQVSLTCLVKGFYPSDIAVEWESNGQPENNYKTTPPVLDSDGSFFLYSKLTVDKSRWQQGNVFSCSVLHEALHYHYTQKSLSLSP
# light: not shown
# notes: S239K/P257A/V308P/M428L/N434Y; copies: 2 + 2
# B2: antibody with VH3-IgG1-F1009 heavy chain and L(WT)-CK light chain (antibody)
# heavy: B1 heavy with L237R, T252V, M254Y, A259P, T309Q, Q313A, L430M, Y438V
# light: not shown
# notes: L235R/S239K/T250V/M252Y/T307Q/V308P/Q311A/N434Y/Y436V; copies: 2 + 2
# B3: antibody with VH3-IgG1-F1327 heavy chain and L(WT)-CK light chain (antibody)
# heavy: QVQLQESGPGLVKPSETLSLTCAVSGHSISHDHAWSWVRQPPGEGLEWIGFISYSGITNYNPSLQGRVTISRDNSKNTLYLQMNSLRAEDTAVYYCARSLARTTAMDYWGEGTLVTVSSASTKGPSVFPLAPSSKSTSGGTAALGCLVKDYFPEPVTVSWNSGALTSGVHTFPAVLQSSGLYSLSSVVTVPSSSLGTQTYICNVNHKPSNTKVDKKVEPKSCDKTHTCPPCPAPEAAGGPSVFLFPPKPKDVLYISRTPEVTCVVVDVSHEDPEVKFNWYVDGVEVHNAKTKPREEQYASTYRVVSVLQPLHADWLNGKEYKCKVSNKALPAPIEKTISKAKGQPREPQVYTLPPSRDELTKNQVSLTCLVKGFYPSDIAVEWESNGQPENNYKTTPPVLDSDGSFFLYSKLTVDKSRWQQGNVFSCSVMHEALHYHVTQKSLSLSP
# light: not shown
# notes: L234A/L235A/N297A on VH3-IgG1-F947; copies: 2 + 2
# B4: IgG1-v1 (antibody)
# heavy: not shown
# light: DIQMTQSPSSLSASVGDRVTITCRASQDISSYLNWYQQKPGKAPKLLIYYTSRLHSGVPSRFSGSGSGTDFTFTISSLQPEDIATYYCQQGNTLPYTFGQGTKVEIK
# notes: IL6R-G1d with P238D (EU numbering); also called IL6R-G1d-v1
# B5: IgG1-v2 (antibody)
# heavy: not shown
# light: B4 light
# notes: IL6R-G1d with L328E (EU numbering); also called L328E
# B6: IgG1-v3 (antibody)
# heavy: not shown
# light: B4 light
# notes: IL6R-G1d with S267E/L328F (EU numbering); also called S267E/L328F
# B7: IgG1-v4 (antibody)
# heavy: not shown
# light: B4 light
# notes: IL6R-G1d with P238D/L328E (EU numbering); also called IL6R-G1d-v4; P238D/L328E
# B8: IgG1-v5 (antibody)
# heavy: B1 heavy with P240D, K241S, A259P, S269E, P310V, L330F, L430M, Y436N
# light: B4 light
# notes: IL6R-G1d with P238D/S267E/L328F (EU numbering); The L chain is not restated for v5; also called IL6R-G1d-v5; P238D/S267E/L328F
# Tests used:
# [1] = molecular target: T1, mouse FcγRIV; assay: SPR, antibody captured by Protein L, mouse FcγR as analyte, pH 7.4, 25 C
# [2] = molecular target: T2, mouse FcγRIIb; assay: as above
# [3] = molecular target: T9, human FcRn (soluble human FcRn complexed with β2-microglobulin) (human, UniProt P61769 21-119, limits assumed); assay: SPR, antibody captured by Protein L, human FcRn as analyte, pH 7.0, 25 C
# T9 construct: also called hFcRn
# [4] = molecular target: T9, human FcRn (soluble human FcRn …); assay: as above; remark: listed apart in the source
# [5] = molecular target: T9, human FcRn (soluble human FcRn …); assay: as above; remark: listed apart in the source
# [6] = molecular target: T3, mouse FcγRI; assay: SPR, antibody captured by Protein L, mouse FcγR as analyte, pH 7.4, 25 C
# [7] = molecular target: T1, mouse FcγRIV; assay: as above; remark: listed apart in the source
# [8] = molecular target: T4, mouse FcγRIII; assay: as above
# [9] = molecular target: T2, mouse FcγRIIb; assay: as above; remark: listed apart in the source
# [10] = molecular target: T5, human FcγRIIb; assay: SPR, antibody captured by Protein L, human FcγR as analyte, pH 7.4, 25 C;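 note: biacore T100 or T200 with Protein L amine-coupled on a CM4 chip, FcγRs diluted in ACES saline with polysorbate 20, buffer-only injection as blank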
# [11] = molecular target: T10, human FcγRIIIa(V) (human, UniProt P08637 17-208, limits assumed); assay: as above
# T10 construct: also called hFcgRIIIa(V); allotype V158
# [12] = molecular target: T11, human FcγRIa (human, UniProt P12314 16-292, limits assumed); assay: as above
# T11 construct: also called hFcgRIa; hFcgRI
# [13] = molecular target: T6, human FcγRIIa(R); assay: as above
# [14] = molecular target: T7, human FcγRIIa(H); assay: as above
# [15] = molecular target: T8, human FcγRIIb; assay: SPR (Biacore); ratio against IgG1
# [16] = molecular target: T8, human FcγRIIb; assay: SPR (Biacore), antibody captured, FcγR as analyte
# [17] = molecular target: T8, human FcγRIIb; assay: SPR (Biacore), antibody captured, FcγR as analyte; remark: listed apart in the source
# [18] = molecular target: T8, human FcγRIIb; assay: SPR (Biacore); ratio against IgG1; remark: listed apart in the source
# T9 sequence (chain, as listed by the source limits assumed, chain 1 of 2): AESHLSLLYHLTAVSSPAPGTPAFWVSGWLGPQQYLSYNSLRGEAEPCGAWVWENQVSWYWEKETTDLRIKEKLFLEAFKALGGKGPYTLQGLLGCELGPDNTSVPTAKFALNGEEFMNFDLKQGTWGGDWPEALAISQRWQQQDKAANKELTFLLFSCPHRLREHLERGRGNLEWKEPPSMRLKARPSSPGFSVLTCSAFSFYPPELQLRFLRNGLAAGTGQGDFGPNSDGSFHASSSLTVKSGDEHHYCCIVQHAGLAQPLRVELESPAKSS
# T9 sequence (P61769 21-119 limits assumed, chain 2 of 2): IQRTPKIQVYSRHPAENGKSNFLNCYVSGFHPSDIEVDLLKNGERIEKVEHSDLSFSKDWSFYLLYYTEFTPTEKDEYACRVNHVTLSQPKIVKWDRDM
# T10 sequence (P08637 other isoform, or with tags, fused parts or gaps limits assumed): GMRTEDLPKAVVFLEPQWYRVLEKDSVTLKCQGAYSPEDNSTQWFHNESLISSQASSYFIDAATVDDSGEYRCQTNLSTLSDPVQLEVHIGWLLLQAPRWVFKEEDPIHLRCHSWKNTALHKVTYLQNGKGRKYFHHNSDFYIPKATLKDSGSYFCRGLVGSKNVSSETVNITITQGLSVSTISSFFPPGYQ
# T11 sequence (P12314 16-292 limits assumed): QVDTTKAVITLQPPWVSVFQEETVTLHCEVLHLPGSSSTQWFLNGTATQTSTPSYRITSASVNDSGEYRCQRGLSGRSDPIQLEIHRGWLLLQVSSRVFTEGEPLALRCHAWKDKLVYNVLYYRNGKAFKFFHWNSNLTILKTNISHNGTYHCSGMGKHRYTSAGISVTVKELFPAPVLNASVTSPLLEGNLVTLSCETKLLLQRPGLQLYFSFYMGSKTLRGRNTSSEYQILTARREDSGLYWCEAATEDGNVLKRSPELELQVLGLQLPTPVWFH
binder,measurement,setting,value
B1,BINDING AMOUNT (RU),[1],138 RU
same,BINDING AMOUNT (RU),[2],-2.5 RU
same,Kd,[3],94 nM
B2,Kd,[4],12 nM
same,Kd,[5],12 nM
same,BINDING AMOUNT (RU),[6],0.6 RU
same,BINDING AMOUNT (RU),[7],7.2 RU
same,BINDING AMOUNT (RU),[8],-12.9 RU
same,BINDING AMOUNT (RU),[9],-1.5 RU
same,BINDING AMOUNT (RU),[10],0.16 RU
same,BINDING AMOUNT (RU),[11],3.64 RU
same,BINDING AMOUNT (RU),[12],0.31 RU
same,BINDING AMOUNT (RU),[13],-0.27 RU
same,BINDING AMOUNT (RU),[14],-0.02 RU
B3,Kd,[5],14 nM
same,BINDING AMOUNT (RU),[10],0.74 RU
same,BINDING AMOUNT (RU),[11],-0.6 RU
same,BINDING AMOUNT (RU),[12],0.87 RU
same,BINDING AMOUNT (RU),[13],-0.2 RU
same,BINDING AMOUNT (RU),[14],-1.14 RU
B4,relative KD for FcγRIIb (KD for IgG1/KD for each variant),[15],4.8
same,Kd,[16],1100 nM
same,Kd,[17],1100 nM
same,relative KD for FcγRIIb (KD for IgG1/KD for each variant),[18],4.8
B5,Kd,[17],2300 nM
same,relative KD for FcγRIIb (KD for IgG1/KD for each variant),[18],2.3
B6,relative KD for FcγRIIb (KD for IgG1/KD for each variant),[15],408
same,Kd,[16],13 nM
B7,Kd,[17],11000 nM
same,relative KD for FcγRIIb (KD for IgG1/KD for each variant),[18],0.47
B8,relative KD for FcγRIIb (KD for IgG1/KD for each variant),[15],12
same,Kd,[16],450 nM
